Assay: label from the status in PepcDB records

Row | Sequence | protein production
1 | RIGIVVAAHGNSTASSMVQVVSQLLNVDNLKAVDMPLDMPPKEALRKIVEAVGEVNEENGVLLLVDMGSLSTFSEEIVRQTGIDVRTVDMVTTPIVLEAARKTALIDTQLETLHESLKNFHGYADIRQSETKQ | not failed
2 | RPFMQKRAQKALPHVSTGADALVGRKVLVTETIDPTTDKGRVAVDGDVWTARSLTGEVIEKGMRVEIVSYESIVLNVVVLGNDKQ | not failed
3 | RRLNDELLGKVVSVVSATERTEWYPALVISPSCNDDITVKKDQCLVRSFIDSKFYSIARKDIKEVDILNLPESELSTKPGLQKASIFLKTRVVPDNWKM | failed
4 | RSRTKLLLLTVIPLIVITALVMAVNYQSGLSTLQKELENYRTDLIDAKKKELQAYLMMGVTAVKPLYESDKAGENQAQAKQILKAMRFDSDGYFFAYDSQGVNTLHAIKPELEGKNLYGMKD | failed
5 | RSSYVLPDKFVLSVPIQGNLDEVHSLSSSLPLLSSAEPLSFQDLLFLFDHAAGDKRIGSILLEIGGVHANPAKLTELRYSIEKMKASGKKVVAFLRSAEDSDYLLATACDSIVVEEGGFLMLDGLKAETLFYTKSLNKIGITFQASQWKTYKSGIEPFVRTGASSEYLEQIGELLDDVYDDYLGYASKRRGISRDSLQAVIDNMALLSAKKAVQLGLADGIASSWA | failed
6 | RTEVVAVALDTSLEELKGRFVESGISKIIVYDGNIDNVVGYIHSSEMFRSPKDWRNHVKEVPIVPETMAAHKLMKLFMQQKKTIAVVVDEFGGTSGIVSLEDLVEEIFGDIEDEHDNTSYICKQIGE | not failed
7 | RTRHLFEMTRELSRALTLEEVVRTSYHFLSSAFDAKVCLLMPNHHGELTPYNAEGMGQLPIDSGIARWCWDKDQIAGAGTDTLPSVPYQLHPISASQQVLAILAIEPNNLRQVLIPEQQQLLQTFNGLIANALERLQQAEMAEQSRINIEREQ | not failed
8 | SAAKALKDLKNLPVSERNIDYKTKLLVGKMNGTAEDKPPQNSVPFDHNHPKGDEIEKPEAERVIVEIEYIESKDLNNVTQVDAVLKSLVTELDSKDWVLVCDALNTIRRLSIFHKEEMLHMLEKVILFIVKSLKNPRSAVSKTACMTSADIFSSYNDHTIDQLDLLLTQLLLKSSQDKRFVCEAAEKALVAMTAHVSPALLLPKLQPFLKNRNPRIRAKASTCFSRCVPRLGIEGIREYGIEKLVQAASSQLSDQLPESREAARAVLLELQTVYKKTTNVEPKEEHPEPVTWQIFCQSNLSPLSAQAVIRVTNVAGVAREGLVAGS | failed
9 | SAALAGVFVWDEERIQEEELQRSINEMKRLEEMSNMFQSSGVQHHPPEPKAQTEGNEDSEGKEQRWEMVMDKKHFKLWRRPITGTHLYQYRVFGTYTDVTPRQFFNVQLDTEYRKKWDALVIKLEVIERDVVSGSEVLHWVTHFPYPMYSRDYVYVRRYSVDQENNMMVLVSRAVEHPSVPESPEFVRVRSYESQMVIRPHKSFDENGFDYLLTYSDNPQTVFPRYCVSWMVSSGMPDFLEKLHMATLKAKNMEIKVKDYISAKPLEMSSEAKATSQSSERKNEGSCGPARIEYA | not failed
10 | SAESWLRLSGAGPAEEAGPEGGLEEPDALDDSLTSLQWLQEFSILNAKAPALPPGGTDPHGYHQVPGSAAPGSPLAADPACLGQPHTPGKPTSSCTSRSAPPGLQAPPPDDVDYATNPHVKPPYSYATLICMAMQASKATKITLSAIYKWITDNFCYFRHADPTWQNSIRHNLSLNKCFIKVPREKDEPGKGGFWRIDPQYAERLLSGAFKKRRLPPVHIHPAFARQAAQEPSAVPRAGPLTVNTEAQQLLREFEEATGEAGWGAGEGRLGHKRKQPLPKRVAKVPRPPSTLLPTPEEQGELEPLKGNFDWEAIFDAGTLGGELGALEALELSPPLSPASHVDVDLTIHGRHIDCPATWGPSVEQAADSLDFDETFLATSFLQHPWDESGSGCLPPEPLFEAGDATLASDLQDWASVGAFL | failed
11 | SAKTDKLAQFLDSGIYESDEFNWFFLDTVRITNRSYTRFKVSPSAYYSRFFNSKQLNQHSSESNPKKRKRKQKNSSFHLPSVGEQASNLRHQEARLFLSKAHESFLKEIELLSLTKGLSDDNDDDDSSLLNKCCDDEVSFIELGGVWQAPFYEITLSFNLHCDNEGESCNEQRVFQVFNNLVVNEIGEEVEAEFSNRRYIMPRNSCFYMSDLHHIRNLVPEKISHYHIGRRCNSLIDVIYAAKSEEGYNLIVIDPPWENASAHQKSKYPTLPNQYFLSLPIKQLAHAEGALVALWVTNREKLLSFVEKELFPAWGIKYVATMYWLKVKPDGTLICDLDLVHHKPYEYLLLGYHFTELAGSEKRSDFKLLDKNQIIMSIPGDFSRKPPIGDILLKHTPGSQPARCLELFAREMAAGWTSWGNEPLHFQDSRYFLKV | failed
12 | SALIAALSVSGLPSNRFTFEGFLPAKPTARRDRLTHLAHEPRTLIFYEASHRIAECLTDLATIFGSMRIAVVARELTKIFETVLDGTLATLQTQVANDENQRKGEFVIIVQGAADQ | failed
13 | SALTAALSVCPLPSSSFFFAGFLPHKKGRKSRLEFLASIDSTIVLYESPHRIGRLMEEVKEHFPDAQVFAAREITKMHEEYVTGTPDELANHFTGQKQRGEFVVVVHPPDKH | failed
14 | SALTLLEDWCKGMDMDPRKALLIVGIPMECSEVEIQDTVKAGLQPLCAYRVLGRMFRREDNAKAVFIELADTVNYTTLPSHIPGKGGSWEVVVKPRNPDDEFLSRLNYFLKDEGRSMTDVARALGCCSLPAESLDAEVMPQVRSPPLEPPKESMWYRKLKVFSGTASPSPGEETFEDWLEQVTEIMPIWQVSEVEKRRRLLESLRGPALSIMRVLQANNDSITVEQCLDALKQIFGDKEDFGASQFRFLQTSPKIGEKVSTFLLRLEPLLQKAVHKSPLSVRSTDMIRLKHLLARVAMTPALRGKLELLDQRGCPPNFLELMKLIRDEEEWENTEAVMKNKEKPSGRGRGASGRQARAEASVSAPQATVQARSFSDSSPQTIQGGLPPLVKRRRLLGSESTRGEDHGQATYPKAENQTPGREGPQAAGEELGNEAGAGAMSHPKPWET | not failed
15 | SANSGCKDVTGPDEESFLYFAYGSNLLTERIHLRNPSAAFFCVARLQDFKLDFGNSQGKTSQTWHGGIATIFQSPGDEVWGVVWKMNKSNLNSLDEQEGVKSGMYVVIEVKVATQEGKEITCRSYLMTNYESAPPSPQYKKIICMGAKENGLPLEYQEKLKAIEPNDYTGKVSEEIEDIIKKGETQTL | not failed
16 | SAQEKMELDLELPPGTGGSPAEGGGSGGGGGLRRSNSAPLIHGLSDTSPVFQAEAPSARRNSTTFPSRHGLLLPASPVRMHSSRLHQIKQEEGMDLINRETVHEREVQTAMQISHSWEESFSLSDNDVEKSASPKRIDFIPVSPAPSPTRGIGKQCFSPSLQSFVSSNGLPPSPIPSPTTRFTTRRSQSPINCIRPSVLGPLKRKCEMETEYQPKRFFQGITNMLSSDVAQLSDPGVCVSSDTLDGNSSSAGSSCNSPAKVSTTTDSPVSPAQAASPFIPLDELSSK | not failed
17 | SASLPIRHLTPRDLTACADLSEDRGWPREEHKWGLLLAAGKGYGIDDPEGGLVSACVVTEYGPQDRPDLGAIGMVLVAERHARQGIGRRLMRHVMAEMATTPLTLCATPFGRPLYEELGFKVVGHSEMVRGYFAP | failed
18 | SASYLILRNYRNSIEGLIEKGIRDEEFIPYYQPIVDSRTQEVVGYEVLLRWQKGHQLVPPSLFISAAEDSGLVVKITNQLIQQVHRDLAQIPAPRWVSINVVADHLEQHHLTHLLEELHWPYSERLKFELTERVPIKAMTQAQEEVFYLLKKGYQFKIDDFGTGYGGFAYLQNLQISSIKIDKMFVDTINTHDVKISVLDSIIASAQGGNIEVIAEGVEHQYQVDYLAERNVFWIQGYFYAKP | failed
19 | SCNETGMLERLPLCGKAFADMMGKVDVWKWCNLSEFIVYYESFTNCTEMEANVVGCYWPNPLAQGFITGIHRQFFSNCTVDRVHLEDPPDEVLIPLIVIPVVLTVAMAGLVVWRSKRTDTLL | not failed
20 | SDDREMDDGRWKASALRVPLQVSSAVIKQEVVTRLAPDPVPLTEGAIGIFLSGTEPESGQEDSGYKVIDNRKYVYSEGHWGPPTANDTIYLVGNDADVCAYYPYKDSYTDKTVIPLQSQDYVETEDIYYALNTMINGFTPAITFDMVHAYSLVELKISRENYFMPCEISKITLKNSNLIKKGTINIAVDGSIHSSETGNYDLTTVTDASPHTLSVGESYVCRVLMIPVPLKIERTDAEGGEFGLSVSLVIDGQQMLVEIPYSELGEFRQGEKYVIGLKIKGTEIVPTVKALEWEDEEVNGGNKYPVE | not failed
21 | SDESDLPSAMPAVPAFGVEERNMVSGVLTLAERSIRSIMTPRTDVSWVNIDDDAATIRQQLTAAPHSFFPVCRGSLDEVVGIGRAKDLVADLITEGRVRRNRLRDPIIVHESIGILRLMDTLKRSRGQLVLVADEFGAIEGLVTPIDVFEAIAGEFPDEDELPDIVAESE | not failed
22 | SDLVITQELARAESQQDAASLKKAYELIKSANLGKSEFDPSESFSPDLFVLCAEQALKMRQPEVSEDCIQMYFKVKAPITQFLGRAHLCRAQMCAPKSAENLEEFENCVTEYMKAINFAKGEPRYYFLVYNASVLYWQMVRPFLKPGYRHHLIPSLSQIINVLSQTEEEDKEWRAELMLELLECYLQAGRKEEAARFCSTAAPFIKSHVPQKYRQIFSVMVNQRIRNRDVRSNFLKSHCSENCVEIT | not failed
23 | SDSAFANLDAAGFLQIWQHFDADDNGYIEGKELDDFFRHMLKKLQPKDKITDERVQQIKKSFMSAYDATFDGRLQIEELANMILPQEENFLLIFRREAPLDNSVEFMKIWRKYDADSSGYISAAELKNFLKDLFLQHKKKIPPNKLDEYTDAMMKIFDKNKDGRLDLNDLARILALQENFLLQFKMDASSQVERKRDFEKIFAHYDVSRTGALEGPEVDGFVKDMMELVRPSISGGDLDKFRECLLTHCDMNKDGKIQKSELALCLGLKHKP | not failed
24 | SEAWEYFHLAPARAGHHPNQYATCRLCGRQVSRGPGVNVGTTALWKHLKSMHREELEKSGHGQ | not failed
25 | SEKYNSLSDFLKEFYIPTYVLSAETEEEEEEESRPTPASPVLVFINSKSGGQLGGELILTYRSLLNHNQVFDLDQETPDKVLRRIYLNLERLKDDDFARQIREKLKIIVAGGDGTAGWLLGVVCDLKLSHPPPIATVPLGTGNNLPFAFGWGKKNPGTDRTAVESFLEQVLKAKVMKIDNWHILMRMKTPKEGGSCDPVAPLELPHSLHAFHRVSPTDELNKEGCHTFRGGFWNYFSLGMDAQISYAFHSERKLHPEKFKNQLVNQSTYVKLGCTQGWFCASLFHPASRNIAQLAKVKIATRNGQWQDLHIPHSIRSIVCLNLPSFSGGLNPWGTPNPRKQRDRGLTPPFVDDGLIEVVGFRNAWHGLVLLAPNGHGTRLAQANRIRFEFHKGATDHTFMRMDGEPWKQPLPLDDETVMVEISHLGQVNMLATHDCRSRSVFDPSTPRHQDGAEDYDDNEDDSVAEGEEFRKFGAADTFKIPDEVDISQLS | failed
26 | SESGFTSKDTYLSHFNPRDYLEKYYKFGSRHSAESQILKHLLKNLFKIFCLDGVKGDLLIDIGSGPTIYQLLSACESFKEIVVTDYSDQNLQELEKWLKKEPEAFDWSPVVTYVCDLEGNRVKGPEKEEKLRQAVKQVLKCDVTQSQPLGAVPLPPADCVLSTLCLDAACPDLPTYCRALRNLGSLLKPGGFLVIMDALKSSYYMIGEQKFSSLPLGREAVEAAVKEAGYTIEWFEVISQSYSSTMANNEGLFSLVARKLSRPL | failed
27 | SFRHTLSVDPSEQLSQDFADPVTDSGYESDEEAAAAATASLSGEEAALWNLVDPQQRLIFVLDGPAAQTLRVKRTGNLERQVVNIHRLPLERAPTVATSLLAATRPQHLVVALRTIEPHQAAAILTSTSYPSLSNVENASQVLVLANDLVQIDDPLLRPLWSDEGTQQNRIQLRWVETGCIGGITAALLAAGCWLRIPVLALLAVEDDDGPSPATLEALLLAAERFGCFTRADWEIRMPNLRQLLAKRQLLYI | not failed
